From patent US10556936B2, “Immunogenic proteins and fragments thereof from allergenic mites” (ALK-ABELLÓ A/S, priority 2016, dated 2020) come the findings set out here.

Holding throughout (type): cell-based, human
Data set [1] relates to PBMC cells obtained from mite allergic patients and non-allergics. Kind of data set: Ex vivo stimulation of PBMC: cytokine production (IFN-gamma, IL-9, IL-10, IL-17, IL-31). From the text: (§1) This example relates to the further testing of immunogenicity of the proteins identified in Example 1. Their ability to react with IgE antibodies in HDM allergic individuals, to stimulate in vitro T cell proliferation of HDM allergic individuals and non-allergics, and to stimulate ex vivo cytokine production of HDM allergic individuals and non-allergics. The following tests were used: • Basophil Activation Test (BAT) was used as a predictive in vitro assay for indication of safety/immediate hypersensitivity reactions. BAT test was carried out using blood from HDM allergic individuals (n=14), and by use of different concentrations of test proteins or the major house dust mite allergens (Der p 1, Der f 1, Der p 2 or Der f 2, e.g. a concentration of 1, 10, 100 or 1000 ng/ml. • In vitro T cell reactivity determined in T cell lines obtained from HDM allergic individuals (n=30) and non-allergics (n=8): Determined by establishment of HDM specific T-cell lines according to standard methods. In short, PMBCs from HDM allergic donors were cultured for 3 weeks in the presence of house dust mite allergen extract. The responses to proteins at a concentration of 0.5 ug/ml or 2 ug/ml of the test protein or the major house dust mite allergens (Der p 1, Der f 1, Der p 2 or Der f 2) were assessed by proliferation in a standard 72 h T cell proliferation assay, as described in Henmar H et al., Clin Exp Immunol 2008; 153(3):316-23. […]. • Ex vivo stimulation of PBMC cells obtained from mite allergic patients (n=16) and non-allergics (n=6): Determined by measuring the production of the cytokines; IFN-gamma, IL-9, IL-10, IL-17 and IL-31 following stimulation with test protein in concentration up to 10 ug/ml. Freshly isolated PBMC 5×10^6/ml were cultured with a test protein for 5 days and cell supernatant were harvested and stored at −80° C. Cytokines of the supernatants were measured using ProcartaPlex Multiplex Immunoassays with MAGPIX Multiplex Reader according manufactory protocol.

Data set [2] has as its system basophils in whole blood from HDM allergic donors. Kind of data set: Basophil Activation Test (BAT). Conditions: blood from HDM allergic individuals (n=14). The procedure: Basophil Activation Test (BAT) was used as a predictive in vitro assay for indication of safety/immediate hypersensitivity reactions. The BAT assay is a widely used diagnostic test that is also used for evaluation of allergenicity of allergen derived components. In short: whole blood from HDM allergic donors was stimulated for 1 h with the proteins, and the increased expression of activation markers on the surface of basophils were measured by flow cytometry. The BAT test was carried out using different concentrations of the proteins and the allergens Der p 2 and Der p 1 was used as controls and tested in the same concentration rates.
as §1

The test system of data set [3] is T cell lines obtained from HDM allergic individuals and non-allergics. Kind of data set: In vitro T cell proliferation test in T cell lines (Example 3). The following applies: 0.5 or 2 ug/ml, 72 h; for % responders of in-vitro T cell proliferation test, Allergic: T cell lines from HDM allergic individuals (n=30); for % responders of in-vitro T cell proliferation test, Non-allergics: T cell lines from non-allergics (n=8).
From the text: as §1

Marks after values point to notes of the source that are not given here.

B1: A010: house dust mite protein; SEQ ID NO: 41 (Der p), 42 (Der f), 308 (Blo t) (protein)
chain: DSLKCSSIRNEDRIDCNPDPPISKNVCEQRGCCWKTAGNDLKNLSSKVLPNLNVPYCYYGENYIGYKIEKHSKNLIQLKRNRSSGFARDIENINIEIHELNDKVIRLKFIDANKKRYEVPIPKLNLPSTTSSSSSNSRLYSVELDGSHLIVRRRETNQSIFDINLAYMVYSDQLIHVTSRLPSKYIYGLGEHRAPFRKNTNWKRYTQWTRDQYPVTDKALYGNHPFYLTVEDESPKKSASGVFLFNSNAMDIITQPSPAITFRTIGGILDFFVFFGPKPEDVISQYQNLIGLPAMPPFWSLGYQQCRYGYNNFTNLNTTYTRNRAVGIPMDVQWTDIDAFNSNNDFTYDHKRFKELPDFINNVLHPNGQKFIPMFDCGISSGEPAGSYKPFDSGVELDVFVKNSSNKIFRGKVWNGKSTVWPDFSHPNATEYWMDMFAEYHKTIAFDGAWLDMNEPSNFYNGEEHGCPESEIENPQYVPGMTDDSLTLRHKTLCMTARHYNDQLHYNLHNLYSLSMAMATNAALTKLNKRPFIISRATAPGHGHWAYHWNGDILSDWSSMRWTIPSILNFNMFGIPMVGADICGFGGNTAEELCIRWYQLGAFYSFARNHNDIHSIDQDPAALGESVIRAARSSLQYRYRFLAHLYTLFYHVHKNGGTVLRPMFFEFPHDEHTYEIETQFMWGDSVLIAPILYPNQTQHKIYLPKGTWYNRKVSFESQGQYITMNDSYDDIDYVFVRGGSIIPTQEPHDNTELMKTKDFLLIVALDNQTSYAKGSLYWDSGDSLNPDKTGHYNFYNFDAVNNTLTIQSQWLGYQTTQNINFINILGVPKLPTSFKLNGHVSDPRIIRFNYDEQTNILTVETKLPIYNQDSSSHDRIHYQFEWIME
For the molecule B1, in data set [1], the “% HDM allergic individuals with cytokine production in ex-vivo T cell assay IL-5” value was found to be 31%, the “% HDM allergic individuals with cytokine production in ex-vivo T cell assay IL-9” value is 13%, the “% HDM allergic individuals with cytokine production in ex-vivo T cell assay IL-10” value came out at 38% and the “% HDM allergic individuals with cytokine production in ex-vivo T cell assay IL-13” value is given as 44%. In data set [1], the “% HDM allergic individuals with cytokine production in ex-vivo T cell assay IL-17” value is 13%, the “% HDM allergic individuals with cytokine production in ex-vivo T cell assay IL-31” value turned out to be 6%, the “% HDM allergic individuals with cytokine production in ex-vivo T cell assay INF-g” value stood at 0% and the “% non-allergic individuals with cytokine production in ex-vivo T cell assay IL-5” value is listed as 0%. For the same molecule, in data set [1], the “% non-allergic individuals with cytokine production in ex-vivo T cell assay IL-9” value is recorded as 0%, the “% non-allergic individuals with cytokine production in ex-vivo T cell assay IL-10” value came out at 0%, the “% non-allergic individuals with cytokine production in ex-vivo T cell assay IL-13” value is listed as 0% and the “% non-allergic individuals with cytokine production in ex-vivo T cell assay IL-17” value turned out to be 0%. Further, in data set [1], the “% non-allergic individuals with cytokine production in ex-vivo T cell assay IL-31” value came to 0% and the “% non-allergic individuals with cytokine production in ex-vivo T cell assay INF-g” value amounted to 0%. The “# of individuals of 14 with positive BAT test” value in data set [2] (1 ng/ml) came out at 0. In addition, the “# of individuals of 14 with positive BAT test” value in data set [2] (10 ng/ml) was 0. In data set [2] (100 ng/ml), the “# of individuals of 14 with positive BAT test” value stood at 0. Further, the “# of individuals of 14 with positive BAT test” value in data set [2] (1000 ng/ml) worked out at 1. Further, in data set [3], the “% responders of in-vitro T cell proliferation test, Allergic” value is 100* % and the “% responders of in-vitro T cell proliferation test, Non-allergics” value is recorded as 14%.

B2: A009: house dust mite protein; SEQ ID NO: 43 (Der f), 44 (Der p), 307 (Blo t) (protein)
chain: VVIKVENLPEQCDYTQCPKWSKDDINVHLVAHTHDDVGWLKTVEQYYYGLKNDIQRAGVQYILDTMIEELIRNKDRRFIYVEIAFFWKWWQEQNEEQRMIVKELVRTGQLEFINGGWSMPDEAATHYNSLIDQSTWGLRQLNDTFGRCGHPKVTWQIDPFGHSKEMANLYAQMGYDALFFARQDYQDRENRMSNRTLEHVWQGSDDLGEIGDIFTGMMFSGYGPIEFNWDITNGPEDAVVDNPESEEYNVPDKIRRFVEKAKYFGQFYATNHFMFPMGTDFQYTDAHTWFKNLDKLINAVNKAGKGVRAFYSTPSCYAHALYEQNRTWTTKTDDFFPYASDEHAYWTGYFTSRPAIKRMERIGNNLLQACKQLDVLADNNGRFEMNLTKMREAMGVMQHHDAVTGTEKQHVAFNYAKMLDSAMLQCRHIINESYKKLLPKSSTSEHEFCPYLNISSCPTTEMGESRIIYLYNPLGHRLINHTVRLPIKNGYYYRIQDQNNQSVPSVLVPIPEFVQKIPGRKSVATKELVFRVPVIEPLGITTMYMYVDKNEQPNSAIEIKGENPDDNDDKSKWLVLTKNLIVEFYSNGTISRISIDKLHQSISISNEFRLYHGAGGTGRHSGAYIFRPNEQKTFPVTNKIKSTFFIDRKYHIVQEVHQQFDSSFVGQIIRMDKYNDNVEFDFVVGPIPVNDQIGKEIIASYKTDLENDETFYTDANGRQMLRRRWNYRPSWKYNVQEPISGNYYPVNSRIAIRDEKQSLQMTIMTDRSQGGSLSPEQINGSIDIMIHRRLLHDDYFGVGEALNEPGVDGHGLVIRGKHLLLLNSIKQSASEHRPLAQQMFMEPIISFTSIESNKQAEKQSNQYIGLNNDLPSNVHLLTLEQWHSKRYLLRLEHFYQSNEDTELSKPVKLSLRHLFKSFEIIAVEELTLGANQPISSLKNRLHYRYNRPLEQRQQQQSSLLLDDPKIEGENFDIHLSPMQIRTFLIDIKRN
Turning to B2, in data set [1], the “% HDM allergic individuals with cytokine production in ex-vivo T cell assay IL-5” value amounted to 0%, the “% HDM allergic individuals with cytokine production in ex-vivo T cell assay IL-9” value worked out at 0%, the “% HDM allergic individuals with cytokine production in ex-vivo T cell assay IL-10” value is reported as 94% and the “% HDM allergic individuals with cytokine production in ex-vivo T cell assay IL-13” value is on record as 6%. Also, in data set [1], the “% HDM allergic individuals with cytokine production in ex-vivo T cell assay IL-17” value was found to be 19%, the “% HDM allergic individuals with cytokine production in ex-vivo T cell assay IL-31” value is on record as 0%, the “% HDM allergic individuals with cytokine production in ex-vivo T cell assay INF-g” value amounted to 19% and the “% non-allergic individuals with cytokine production in ex-vivo T cell assay IL-5” value is reported as 0%. Further, in data set [1], the “% non-allergic individuals with cytokine production in ex-vivo T cell assay IL-9” value is listed as 0%, the “% non-allergic individuals with cytokine production in ex-vivo T cell assay IL-10” value is reported as 100%, the “% non-allergic individuals with cytokine production in ex-vivo T cell assay IL-13” value was found to be 0% and the “% non-allergic individuals with cytokine production in ex-vivo T cell assay IL-17” value was 33%. Besides, in data set [1], the “% non-allergic individuals with cytokine production in ex-vivo T cell assay IL-31” value is listed as 0% and the “% non-allergic individuals with cytokine production in ex-vivo T cell assay INF-g” value is 50%. For the same molecule, the “# of individuals of 14 with positive BAT test” value in data set [2] (1 ng/ml) is on record as 0. In addition, the “# of individuals of 14 with positive BAT test” value in data set [2] (10 ng/ml) was found to be 0. Moreover, in data set [2] (100 ng/ml), the “# of individuals of 14 with positive BAT test” value amounted to 0. For the same molecule, the “# of individuals of 14 with positive BAT test” value in data set [2] (1000 ng/ml) is reported as 3. For the same molecule, in data set [3], the “% responders of in-vitro T cell proliferation test, Allergic” value is on record as 36% and the “% responders of in-vitro T cell proliferation test, Non-allergics” value amounted to 63%.
